Reference: patent publication US20130086703

Target: T1, human Keratin 17
T1 chain: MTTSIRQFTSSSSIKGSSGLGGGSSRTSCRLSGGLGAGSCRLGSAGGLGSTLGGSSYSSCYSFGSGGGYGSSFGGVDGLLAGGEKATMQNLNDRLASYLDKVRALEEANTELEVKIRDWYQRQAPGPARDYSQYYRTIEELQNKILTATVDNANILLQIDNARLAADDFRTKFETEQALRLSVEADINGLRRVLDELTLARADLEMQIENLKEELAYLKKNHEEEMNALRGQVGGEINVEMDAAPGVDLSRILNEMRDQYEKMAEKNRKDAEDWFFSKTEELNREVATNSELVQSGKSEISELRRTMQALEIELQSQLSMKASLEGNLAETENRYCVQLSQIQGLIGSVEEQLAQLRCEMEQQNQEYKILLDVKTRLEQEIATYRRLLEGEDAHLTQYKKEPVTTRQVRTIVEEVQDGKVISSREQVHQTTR

B1: RgpB (protein)
chain: YTPVEEKENGRMIVIVPKKYEEDIEDFVDWKNQRGLRTEVKVAEDIASPVTANAIQQFVKQEYEKEGNDLTYVLLVGDHKDIPAKITPGIKSDQVYGQIVGNDHYNEVFIGRFSCESKEDLKTQIDRTIHYERNITTEDKWLGQALCIASAEGGPSADNGESDIQHENIIANLLTQYGYTKIIKCYDPGVTPKNIIDAFNGGISLANYTGHGSETAWGTSHFGTTHVKQLTNSNQLPFIFDVACVNGDFLYNVPCFAEALMRAQKDGKPTGTVAIIASTINQSWASPMRGQDEMNEILCEKHPNNIKRTFGGVTMNGMFAMVEKYKKDGEKMLDTWTVFGDPSLLVRTLVPTKMQVTAPANISASAQTFEVACDYNGAIATLSDDGDMVGTAIVKDGKAIIKLNESIADETNLTLTVVGYNKVTVIKDVKVEG
  enzymatic degradation products detected by mass spectrometry (on spot profiling): peptides consisting of the amino acid sequences shown by SEQ ID NOs: 6-10 (peptides 8-12) were newly identified as RgpB degradation products of human Keratin 17
